Measurements reported in patent US20240309087A1 (SHANGHAI JUNSHI BIOSCIENCES, published 2024).
Like-named read-outs stand apart in the source and are kept apart here. Blank lines part the entries; values can stand above or below the binder they belong to.

Key:
[1] = target: T1, hCD112R mFC recombinant protein (human; murine, UniProt Q6DKI7 41-160); assay: ELISA, coated hCD112R-ECD-mFC
T1 construct: range 41-160; expressed in 293E cells; also called hCD112R ECD mFC; hCD112R-ECD-mFC; not shown: murine IgG2a Fc domain (MX2-mFc vector)
T1 sequence (looked up): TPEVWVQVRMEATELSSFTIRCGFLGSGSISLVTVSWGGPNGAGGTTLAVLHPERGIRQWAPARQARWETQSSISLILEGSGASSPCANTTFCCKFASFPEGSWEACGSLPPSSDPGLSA
Outline: (§1)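 Plates coated with hCD112R-ECD-mFC at 1.5 μg/mL; humanized antibodies titrated from 1 μg/mL, 2.5-fold, 12 points. Bound antibody detected with HRP anti-human IgG Fc and TMB, read at 420/620 nm; EC50 from 4PL fit, COM701 and anti-KLH hu-IgG4 as controls.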

[2] = target: T1, hCD112R mFC recombinant protein; assay: FACS competition, hCD112R mFc on CHO CD112 cells; IC50 COM701/IC50 antibody
Outline: (§2)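 CHO cells overexpressing human CD112 were co-incubated 30 min at 4 °C with hCD112R mFc (5 μg/mL) and humanized anti-CD112R antibodies (from 100 μg/mL, 3-fold, 10 points). Bound fusion protein detected with anti-mouse IgG Fc secondary by flow cytometry; IC50 from four-parameter fit of MFI. COM701 served as positive control, anti-KLH hu-IgG4 as negative.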

[3] = target: T1, hCD112R mFC recombinant protein; assay: FACS competition, hCD112R mFc on CHO CD112 cells
Outline: as §2

[4] = target: T1, hCD112R mFC recombinant protein; assay: ELISA, coated hCD112R-ECD-mFC; EC50 COM701/EC50 antibody
Outline: as §1

[5] = target: T2, human CD112R on Jurkat CD112R effector cells (human, UniProt Q6DKI7 1-326); assay: cell-based or functional assay
T2 sequence (looked up): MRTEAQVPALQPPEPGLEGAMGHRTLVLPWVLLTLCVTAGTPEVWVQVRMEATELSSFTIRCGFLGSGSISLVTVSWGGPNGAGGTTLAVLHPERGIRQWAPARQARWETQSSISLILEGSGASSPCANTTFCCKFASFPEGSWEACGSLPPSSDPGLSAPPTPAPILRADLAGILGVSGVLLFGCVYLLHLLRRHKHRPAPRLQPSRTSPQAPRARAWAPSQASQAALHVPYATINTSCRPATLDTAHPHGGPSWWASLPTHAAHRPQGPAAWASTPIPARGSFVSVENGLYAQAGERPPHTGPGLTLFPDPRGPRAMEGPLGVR

[6] = target: T3, mouse CD112R antigen (mouse); assay: ELISA on coated mouse CD112R, OD 450 nm, ambiguous fit of a nearly flat curve; unit from the axis
T3 construct: bought
Method: Plates were coated with a recombinant cynomolgus monkey CD112R antigen (purchased from Acrobiosystems, Cat No. PVG-C5259) and a mouse CD112R antigen (purchased from Acrobiosystems, Cat No. PVG-M5257) at fixed concentrations, respectively, and the humanized anti-CD112R antibodies diluted in a gradient (initial concentration: 1 μg/mL, 2.5-fold gradient dilution, 12 concentration gradients in total) were added to bind to the antigens, HRP-conjugated mouse anti-human IgG4 Fc (Southern Biotech. 9200-05) was subjected to a 5000-fold dilution and used as detection antibody for detection. The color development was performed with 0.1 mg/mL TMB, and finally stopped with 2 M hydrochloric acid. […] EC₅₀ was obtained by fitting with a four-parameter logistic regression (4PL) model.

[7] = target: T4, recombinant cynomolgus monkey CD112R antigen (cynomolgus monkey, UniProt A0A2K5WVV8 1-322); assay: ELISA, coated cynomolgus monkey CD112R
T4 construct: bought
T4 sequence: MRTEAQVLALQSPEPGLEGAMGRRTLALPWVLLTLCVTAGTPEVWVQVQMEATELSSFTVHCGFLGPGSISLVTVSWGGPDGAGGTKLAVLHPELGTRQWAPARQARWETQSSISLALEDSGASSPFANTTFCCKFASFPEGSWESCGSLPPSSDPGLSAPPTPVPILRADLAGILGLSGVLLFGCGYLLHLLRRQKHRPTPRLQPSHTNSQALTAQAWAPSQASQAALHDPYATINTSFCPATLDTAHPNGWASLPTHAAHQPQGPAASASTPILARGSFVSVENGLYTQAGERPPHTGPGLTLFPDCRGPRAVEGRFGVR
Method: Plates were coated with a recombinant cynomolgus monkey CD112R antigen (purchased from Acrobiosystems, Cat No. PVG-C5259) and a mouse CD112R antigen (purchased from Acrobiosystems, Cat No. PVG-M5257) at fixed concentrations, respectively, and the humanized anti-CD112R antibodies diluted in a gradient (initial concentration: 1 μg/mL, 2.5-fold gradient dilution, 12 concentration gradients in total) were added to bind to the antigens, HRP-conjugated mouse anti-human IgG4 Fc (Southern Biotech. 9200-05) was subjected to a 5000-fold dilution and used as detection antibody for detection. The color development was performed with 0.1 mg/mL TMB, and finally stopped with 2 M hydrochloric acid. The plates were read at 420 nm/620 nm. EC₅₀ was obtained by fitting with a four-parameter logistic regression (4PL) model.

[8] = target: T4, recombinant cynomolgus monkey CD112R …; assay: ELISA on coated recombinant cynomolgus monkey CD112R, OD 450 nm, 4PL fit; unit from the axis
[9] = target: T2, human CD112R on Jurkat CD112R effector …; assay: cell-based or functional assay; remark: listed apart in the source
[10] = target: T1, hCD112R mFC recombinant protein; assay: Biacore T200, antibody captured, hCD112R mFc injected
Method: Biacore T200 was used to assay the binding affinity of the anti-CD112R hybridoma antibodies for the recombinant hCD112R mFc protein. […] antibody fragments (Jackson ImmunoResearch) were coupled to the surface of a CM5 chip, and the anti-CD112R hybridoma antibodies were each captured by using the chip, after which recombinant hCD112R mFc proteins at different concentrations were injected into the CM5 chip.

[11] = target: T1, hCD112R mFC recombinant protein; assay: FACS competition, hCD112R mFc on CHO CD112 cells; remark: listed apart in the source
Method: Unbound antibodies were then washed with a staining buffer and the cells were incubated with 1% (v/v) goat anti-mouse IgG Fc fluorescent secondary antibodies (Jackson ImmunoResearch) prepared in a staining buffer at 4° C. for 30 min in the dark. Finally, the cells were collected by using a flow cytometer, and the fluorescent antibodies bound to the cell surface were detected. Raw data were analyzed by using FlowJo to obtain MFI values, and a four-parameter curve fitting was performed by using GraphPad Prism software to obtain IC₅₀ values.

EC50 [1]: 0.00496 µg/mL
Relative activity (%) [2]: 76%
IC50 [3]: 3.17 µg/mL
Relative activity (%) [4]: 169%
EC50, CD112R/CD112 reporter [5]: 0.0188 µg/mL
Relative activity (%), EC50 COM701/EC50 antibody [5]: 312%
EC50 [6]: ~1970 µg/mL
EC50 [7]: 0.00262 µg/mL
B1: Hu59 (antibody, human IgG4 S228P, kappa)
heavy: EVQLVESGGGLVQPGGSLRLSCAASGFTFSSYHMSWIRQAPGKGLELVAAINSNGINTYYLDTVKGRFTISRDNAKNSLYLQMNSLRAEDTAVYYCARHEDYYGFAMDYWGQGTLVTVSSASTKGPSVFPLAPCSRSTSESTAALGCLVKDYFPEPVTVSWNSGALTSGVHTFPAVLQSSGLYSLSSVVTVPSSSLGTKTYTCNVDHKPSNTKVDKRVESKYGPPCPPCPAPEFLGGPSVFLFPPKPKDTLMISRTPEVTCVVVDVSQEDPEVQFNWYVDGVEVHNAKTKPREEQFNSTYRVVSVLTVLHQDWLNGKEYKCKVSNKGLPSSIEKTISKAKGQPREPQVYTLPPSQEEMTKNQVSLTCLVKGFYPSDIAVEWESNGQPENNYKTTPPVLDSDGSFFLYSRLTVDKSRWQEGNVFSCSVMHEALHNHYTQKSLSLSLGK
light: DIQMTQSPSSLSASVGDRVTITCKASQSVSNDVAWYQQKPGKAPKLLIYYVSNRFTGVPSRFSGSGSGTDFTLTISSLQPEDFATYFCQQAYRSPWTFGQGTKLEIKRTVAAPSVFIFPPSDEQLKSGTASVVCLLNNFYPREAKVQWKVDNALQSGNSQESVTEQDSKDSTYSLSSTLTLSKADYEKHKVYACEVTHQGLSSPVTKSFNRGEC
notes: humanized; 7C2VH2 + 7C2VL1

EC50 [6]: ~1.06 µg/mL
EC50 [8]: 0.00428 µg/mL
B2: COM701 (antibody, V domains shown)
VH: QVQLVQSGAEVKKPGASVKVSCKASGYTFTDYNINWVRQAPGQGLEWMGYIYPYIGGSGYAQKFQGRVTMTRDTSTSTVYMELSSLRSEDTAVYYCAREDKTARNAMDYWGQGTLVTVSS
VL: DIQMTQSPSSLSASVGDRVTITCRVSENIYSNLAWYQQKPGKAPKLLIYEATNLAEGVPSRFSGSGSGTDFTLTISSLQPEDFATYYCQHFWGTPYTFGQGTKLEIK

EC50, CD112R/CD112 NFAT-luciferase reporter [9]: 0.0379 µg/mL
B3: 7C2.1 (antibody, V domains shown)
VH: DVKLVESGGGLVKLGGSLKLSCAASGFTFSSYHMSWIRQTPEKRLELVAAINSNGINTYYLDTVKGRFTISRDNAKNTLYLQMSSLKSEDTALYYCARHEDYYGFAMDYWGQGTSVTVSS
VL: SIVMTQTPKFLLVSAGDRVTITCKASQSVSNDVAWYQQKPGQSPKLLMYYVSNRFTGVPDRFTGSGYGTDFTFTINTVQAEDLAVYFCQQAYRSPWTFGGGTKLEIK

EC50, CD112R/CD112 NFAT-luciferase reporter [9]: 0.0404 µg/mL
B4: 5C10.1 (antibody, V domains shown)
VH: DVKLVESGGGLVKLGGSLKLSCAASGFTFSSYHMSWVRQTPEKRLELVAAISRDGDSTYYPDTVKGRFTISRDDAENTLYLQMSSLKSEDTALYYCSRHEDYFGFAMDSWGQGTSVTVSS
VL: SIVMTQTPKFLLVSAGDRVTITCKASQSVTNDVAWYQQKPGQSPKLLMYYVSNHYTGVPDRFIGSGYGTDFTFTISTVQAEDLAVYFCQQAYRSPWTFGGGTKLEIK

EC50, CD112R/CD112 NFAT-luciferase reporter [9]: 0.0493 µg/mL
B5: 3D2.1 (antibody, V domains shown)
VH: DVQLVESGGGLVKLGGSLKLSCVASGFTFSSYHMSWIRQTPEKRLELVAAINSNDINTYYLDTVKGRFTISRDIAKNTLHLQMSSLKSEDTALYYCARHEDYYGFAMDYWGQGTSVTVSS
VL: DIQLTQSPASLSVSVGETVTITCRVSANIYSNLVWYHQRQGKSPQLLVYGGTNLADGVPSRFSGSGSGTQFSLKINSLQSEDFGSYHCQHFWSTPYTFGGGTKLEIK

EC50, CD112R/CD112 NFAT-luciferase reporter [9]: 0.0507 µg/mL
B6: 6A10.1 (antibody, V domains shown)
VH: DVKLVESGGGLVKLGGSLKLSCAASGFTFSSYHMSWVRQTPEKRLELVAAINSNVISTYYLDTVKGRFTISRDNAKNTLYLQMSSLKSEDTALYYCARHEDYYGFAMDYWGQGTSVTVSS
VL: SIVMTQTPKFLLVSAGDRVTITCKASQSVSNDVAWYQEKPGQSPKLLMYYVSHRFTGVPDRFTGSGYGTDFTFTINTVQAEDLAVYFCHQAYRSPWTFGGGTKLEIK

EC50 [1]: 0.00426 µg/mL
Relative activity (%) [2]: 143%
IC50 [3]: 2.5 µg/mL
Relative activity (%) [4]: 126%
EC50, CD112R/CD112 reporter [5]: 0.0196 µg/mL
Relative activity (%), EC50 COM701/EC50 antibody [5]: 253%
EC50 [6]: ~683 µg/mL
EC50 [7]: 0.00292 µg/mL
B7: Hu16 (antibody, human IgG4 S228P, kappa)
heavy: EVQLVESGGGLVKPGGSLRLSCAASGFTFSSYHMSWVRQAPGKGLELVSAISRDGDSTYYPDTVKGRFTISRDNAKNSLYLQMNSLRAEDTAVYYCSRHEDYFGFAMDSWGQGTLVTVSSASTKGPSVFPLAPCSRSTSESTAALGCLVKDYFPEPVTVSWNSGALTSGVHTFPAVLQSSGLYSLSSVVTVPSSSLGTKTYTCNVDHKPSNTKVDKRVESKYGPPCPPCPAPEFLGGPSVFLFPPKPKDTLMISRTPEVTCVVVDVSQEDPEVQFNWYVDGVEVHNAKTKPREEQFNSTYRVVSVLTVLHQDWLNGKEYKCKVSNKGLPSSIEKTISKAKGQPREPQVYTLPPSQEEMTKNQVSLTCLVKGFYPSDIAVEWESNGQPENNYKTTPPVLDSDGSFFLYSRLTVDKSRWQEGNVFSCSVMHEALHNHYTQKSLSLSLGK
light: DIVMTQSPDSLAVSLGERATINCKASQSVSNDVAWYQQKPGQPPKLLIYYVSHRFTGVPDRFSGSGSGTDFTLTISSLQAEDVAVYFCHQAYRSPWTFGQGTKLEIKRTVAAPSVFIFPPSDEQLKSGTASVVCLLNNFYPREAKVQWKVDNALQSGNSQESVTEQDSKDSTYSLSSTLTLSKADYEKHKVYACEVTHQGLSSPVTKSFNRGEC
notes: humanized; 5C10VH1 + 6A10VL2

Kd [10]: 0.00926 nM
EC50, CD112R/CD112 NFAT-luciferase reporter [9]: 0.0552 µg/mL
IC50 [11]: 0.111 µg/mL
B8: 4E5.1 (antibody, V domains shown)
VH: EVMLVESGGGLVKPGGSLKLSCAASGFTFSNYIMSWVRQTPDMRLEWVATISSGGSSTYYVDRVKGGFPFSRDSVKYILYVHTSSLRSADTAIYYCAKHEDWDPLYYYSMDYWGQGTSVTVSS
VL: QIVLTQSPTVMSASPGDKVTMTCSASSSVSYMYWFQQKPGSSPRLLIYDTSHLAFGVPSRFSGSRSGTSYSLTISRMEAEDTATYYCQQWTTYPLTFGAGTKLELK
notes: murine hybridoma antibody

Kd [10]: 0.0302 nM
EC50, CD112R/CD112 NFAT-luciferase reporter [9]: 0.0729 µg/mL
IC50 [11]: 0.261 µg/mL
B9: 2G10.1 (antibody, V domains shown)
VH: QVQLQQSGAELVKPGASVKLSCKASGYTFTSHYMYWLKQRPGQGLEWIGEINPSNGDTKFNEKFKSKATLTVDKSSSTAYMQLSSLTSEDSAVYYCTREKDAFSALDYWGQGTSVTDSS
VL: DIQMIQSPSSMFASLGDRVSLSCRASQGIRGHLDWYQQKPGGTIKLLIYSTSILNFGVPSRFSGSGSGSDYSLTISSLESEDFADYYCLQRNAYPLTFGAGTKLELK
notes: murine hybridoma antibody
